Source: US20210145976A1 (ARO BIOTHERAPEUTICS, published 2021)

Legend:
[1] = target: T1, recombinant biotinylated CD71 extracellular domain (Sino Biologics) with an N-terminal 6His tag (human, UniProt P02786 89-760, biotinylated (sites not given)); assay: screening ELISA
T1 construct: extracellular domain; also called hCD71; huCD71

[2] = target: T1, recombinant biotinylated CD71 …; assay: screening ELISA, ratio
[3] = target: CD71 on SK-BR-3 cells (human, UniProt P02786 1-760); assay: cell-based or functional assay
Sequence of CD71 on SK-BR-3 cells (P02786 whole entry): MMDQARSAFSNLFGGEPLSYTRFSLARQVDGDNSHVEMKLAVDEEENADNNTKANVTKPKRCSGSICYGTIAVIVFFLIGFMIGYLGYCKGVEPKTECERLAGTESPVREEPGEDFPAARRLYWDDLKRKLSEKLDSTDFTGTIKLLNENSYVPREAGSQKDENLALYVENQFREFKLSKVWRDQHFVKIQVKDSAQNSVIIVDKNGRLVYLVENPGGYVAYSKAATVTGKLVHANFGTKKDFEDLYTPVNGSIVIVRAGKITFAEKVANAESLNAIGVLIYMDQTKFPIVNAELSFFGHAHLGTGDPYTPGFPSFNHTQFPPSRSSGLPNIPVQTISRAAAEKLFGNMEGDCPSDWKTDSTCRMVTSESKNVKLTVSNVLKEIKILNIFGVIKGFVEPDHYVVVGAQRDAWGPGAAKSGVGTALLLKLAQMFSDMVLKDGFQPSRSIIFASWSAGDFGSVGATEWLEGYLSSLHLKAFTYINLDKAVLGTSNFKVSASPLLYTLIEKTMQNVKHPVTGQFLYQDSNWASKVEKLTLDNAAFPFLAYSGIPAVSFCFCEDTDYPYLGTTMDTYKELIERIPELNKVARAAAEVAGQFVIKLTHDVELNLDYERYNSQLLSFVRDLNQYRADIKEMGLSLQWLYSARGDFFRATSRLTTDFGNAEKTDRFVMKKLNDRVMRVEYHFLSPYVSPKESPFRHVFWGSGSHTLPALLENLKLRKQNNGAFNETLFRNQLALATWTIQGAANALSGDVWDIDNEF

T1 sequence (P02786 other isoform, or with tags, fused parts or gaps): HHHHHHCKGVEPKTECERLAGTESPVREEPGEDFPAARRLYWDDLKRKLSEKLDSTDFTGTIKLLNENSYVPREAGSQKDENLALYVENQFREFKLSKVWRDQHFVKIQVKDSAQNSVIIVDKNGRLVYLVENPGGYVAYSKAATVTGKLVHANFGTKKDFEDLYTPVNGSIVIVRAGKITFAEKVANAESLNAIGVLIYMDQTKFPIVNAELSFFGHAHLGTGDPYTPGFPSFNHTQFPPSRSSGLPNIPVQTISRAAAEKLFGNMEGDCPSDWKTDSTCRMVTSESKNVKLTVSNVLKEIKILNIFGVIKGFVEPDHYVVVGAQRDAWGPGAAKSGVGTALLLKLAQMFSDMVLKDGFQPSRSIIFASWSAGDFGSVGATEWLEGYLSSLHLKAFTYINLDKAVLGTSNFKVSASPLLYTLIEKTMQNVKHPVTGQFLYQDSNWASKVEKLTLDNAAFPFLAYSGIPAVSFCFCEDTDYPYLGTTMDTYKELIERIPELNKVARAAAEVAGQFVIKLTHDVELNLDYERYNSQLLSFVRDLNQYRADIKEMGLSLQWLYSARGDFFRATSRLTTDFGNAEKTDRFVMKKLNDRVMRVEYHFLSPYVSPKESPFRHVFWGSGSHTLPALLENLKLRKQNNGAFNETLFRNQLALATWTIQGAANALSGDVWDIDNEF

Binder	hCD71 [1]	hCD71:HSA [2]	IC50, SKBR-3 viability, MMAF conjugate, second unlabelled column (+/- human transferrin) [3] [nM]	IC50, SKBR-3 viability, MMAF conjugate, first unlabelled column (+/- human transferrin) [3] [nM]
SEQ ID NO 222 (designed binder, FN3 domain) MLPAPKNLVVSRVTEDSARLSWTAPDAAFDSFYIEYFEWTGSGEAIVLTVPGSERSYDLTGLKPGTEYNVAIYGVKGGAVSYPLSAIFTT	1.74e+06	441	28.2	
SEQ ID NO 104 (designed binder, FN3 domain) MLPAPKNLVVSHVTEDSARLSWTAPDAAFDSFDIEYYELVGSGEAIVLTVPGSERSYDLTGLKPGTEYYVAIYGVKGGYLSRPLSAIFTT	3.58e+06	2100	5.9	301
SEQ ID NO 217 (designed binder, FN3 domain) MLPAPKNLVVSRVTEDSARLSWTAPDAAFDSFIIEYWEWYFAGEAIVLTVPGSERSYDLTGLKPGTEYTVWITGVKGGTWSEPLSAIFTT	3.9e+06	332	2.46	15.8
SEQ ID NO 197 (designed binder, FN3 domain) MLPAPKNLVVSRVTEDSARLSWTAPDAAFDSFKIDYLEINDNGEAIVLTVPGSERSYDLTGLKPGTEYPVYIWGVKGGYPSSPLSAIFTT	4.57e+06	242	0.468	
SEQ ID NO 212 (designed binder, FN3 domain) MLPAPKNLVVSRVTEDSARLSWTAPDAAFDSFIIEYWEQIGVGEAIVLTVPGSERSYDLTGLKPGTEYWVGIYGVKGGLLSSPLSAIFTT	2.49e+06	1110	6.69	
SEQ ID NO 214 (designed binder, FN3 domain) MLPAPKNLVVSRVTEDSARLSWTAPDAAFDSFAIPYGERQELGEAIVLTVPGSERSYDLTGLKPGTEYFVVIQGVKGGQPSYPLSAIFTT	2.14e+06	974	29.2	28.1
SEQ ID NO 190 (designed binder, FN3 domain) MLPAPKNLVVSRVTEDSARLSWTAPDAAFDSFFIGYPEYPATGEAITLFVPGSERSYDLTGLKPGTEYNVVIQGVKGGRPSNPLVVAFTT	3.21e+06	656	12	36
SEQ ID NO 134 (designed binder, FN3 domain) MLPAPKNLVVSRVTEDSARLSWTAPDAAFDSFWIDYYERKYVGEAIVLTVPGSERSYDLTGLKPGTEYEVTIYGVKGGWYSDPLSAIFTT	3.08e+06	1580	8.54	165
SEQ ID NO 194 (designed binder, FN3 domain) MLPAPKNLVVSRVTEDSARLSWTAPDAAFDSFEIDYDELAIYGEAIVLTVPGSERSYDLTGLKPGTEYRVFIYGVKGGWTSWPLSTIFTT	562000	32	5.09	
SEQ ID NO 112 (designed binder, FN3 domain) MLPAPKNLVVSRVTEDSARLSWTAPDAAFDSFFIAYFEFANPGEAIVLTVPGSERSYDLTGLKPGTEYKVVIQGVKGGTPSEPLSAISTT	3.65e+06	514	4.55	27.3
SEQ ID NO 115 (designed binder, FN3 domain) MLPAPKNLVVSRVTEDSARLSWTAPDAAFDSFFIGYLEPQPPGEAIVLTVPGSERSYDLTGLKPGTEYNVTIQGVKGGFPSMPLSAIFTTT	2.92e+06	846	10.4	24.2
SEQ ID NO 95 (designed binder, FN3 domain) MLPAPKNLVVSRVTEDSARLSWTAPDAAFDSFRISYYEWYDLGEAIVLTVPGSERSYDLTGLKPGTEYWVDIAGVKGGYYSYPLSAIFTT	4.21e+06	2210	12.7	28.3
SEQ ID NO 92 (designed binder, FN3 domain) MLPAPKNLVVSRVTEDSARLSWTAPDAAFDSFLIRYWEWYVLGEAIVLTVPGSERSYDLTGLKPGTEYYVEISGVKGGWQSWPLSAIFTT	3.85e+06	2960	1.06	5.49

More lines, main results first:

hCD71 [1]	hCD71:HSA [2]	Binder	IC50, SKBR-3 viability, MMAF conjugate, second unlabelled column (+/- human transferrin) [3] [nM]	IC50, SKBR-3 viability, MMAF conjugate, first unlabelled column (+/- human transferrin) [3] [nM]
2.44e+06	1160	SEQ ID NO 259 (designed binder, FN3 domain) MLPAPKNLVVSRVTEDSARLSWTAPDAAFDSFTIEYFEFVDAGEAIVLTVPGSERSYDLTGLKPGTEYWVEIWGVKGGSWSKPLSAIFTT		27.5
2.7e+06	844	SEQ ID NO 296 (designed binder, FN3 domain) MLPAPKNLVVSRVTEDSARLSWTAPDAAFDSFFIGYLEPQPPGEAIILTVPGSERSYDLTGLKPGTEYNVTIQGVKGGFPSMPLSAIFTT	18.6	29.3
3.51e+06	1330	SEQ ID NO 303 (designed binder, FN3 domain) MLPAPKNLVVSRVTEDSARLSWTAPDAAFDSFFIAYFEFANPGEAIVLTVPGSERSYDLTGLKPGTEYKVVIQGVKGGTPSEPLSAIFTT	39	33
3.69e+06	568	SEQ ID NO 278 (designed binder, FN3 domain) MLPAPKNLVVSRVTEDSARLSWTAPDAAFDSFPIAYAEPRPDGEAIVLTVPGSERSYDLTGLKPGTEYSVLIHGVKGGHLSDPLSAIFTT	3.7	13.2
3.41e+06	1310	SEQ ID NO 233 (designed binder, FN3 domain) MLPAPKNLVVSRVTEDSARLSWTAPDAAFDSFYIVYAEPIPNGEAIVLTVPGSERSYDLTGLKPGTEYSVLIHGVKGGRNSDPLSAIFTT	17.7	54.6
2.37e+06	601	SEQ ID NO 257 (designed binder, FN3 domain) MLPAPKNLVVSRVTEDSARLSWTAPDAAFDSFHIVYHEPRPSGEAIVLTVPGSERSYDLTGLKPGTEYEVGIVSVKGGDLSVPLSAIFTT	6.5	22
2.19e+06	503	SEQ ID NO 307 (designed binder, FN3 domain) MLPAPKNLVVSRVTEDSARLSWTAPDAAFDSFPITYSEPAHYGEAIVLTVPGSERSYDLTGLKPGTEYHVGIMGVKGGVFSSPLSAIFTT	30.8	47.9
4.15e+06	2240	SEQ ID NO 237 (designed binder, FN3 domain) MLPAPKNLVVSRVTEDSARLSWTAPDAAFDSFTILYGEMGTTGEAIVLTVPGSERSYDLTGLKPGTEYDVFIEGVKGGELSWPLSAIFTT	3.76	28.1
3.92e+06	2910	SEQ ID NO 235 (designed binder, FN3 domain) MLPAPKNLVVSRVTEDSARLSWTAPDAAFDSFSINYREWWSDGEAIYLPVPGSERSYDLTGLKPGTEYAVYIQGVKGGSRSFPLHAWFTT	10.6	1.75
4.23e+06	763	SEQ ID NO 261 (designed binder, FN3 domain) MLPAPKNLVVSRVTEDSARLSWTAPDAAFDSFTIVYGEWGVPGEAIVLTVPGSERSYDLTGLKPGTEYDVWIEGVKGGDLSWPLSAIVTT	31.2	1.24
2.98e+06	1190	SEQ ID NO 252 (designed binder, FN3 domain) MLPAPKNLVVSRVTEDSARLSWTAPDAAFDSFDIGYTEYGGYGEAIVLTVPGSERSYDLTGLKPGTEYWVLIQGVKGGGSSVPLSAIFTT	7.74	24.6
2.67e+06	126	SEQ ID NO 302 (designed binder, FN3 domain) MLPAPKNLVVSRVTEDSARLSWTAPDAAFDSFDIYYPEYYDRGEAIVLTVPGSERSYDLTGLKPGTEYTVYIDGVKGGGGSGPLSAIFTT	27.8	164
2.88e+06	679	SEQ ID NO 238 (designed binder, FN3 domain) MLPAPKNLVVSRVTEDSARLSWTAPDAAFDSFKIFYQEFGGEAIVLTVPGSERSYDLTGLKPGTEYWVDIYGVKGGYTSSPLSAIFTT	7.23	
